Here are results for two substances from PMC4405707.

This assay addresses TARP γ-2 (rat) (UniProt Q71RJ2). Nature of the assay: co-IP; GluA2 variants transfected into HEK293T cells stably expressing TARP γ-2; proteins extracted under mild detergent conditions; IP with an anti-γ-2 antibody, blot probed with polyclonal GluA2 antibody; amounts normalized to the input.

Chain of TARP γ-2 (rat) (Q71RJ2 whole entry): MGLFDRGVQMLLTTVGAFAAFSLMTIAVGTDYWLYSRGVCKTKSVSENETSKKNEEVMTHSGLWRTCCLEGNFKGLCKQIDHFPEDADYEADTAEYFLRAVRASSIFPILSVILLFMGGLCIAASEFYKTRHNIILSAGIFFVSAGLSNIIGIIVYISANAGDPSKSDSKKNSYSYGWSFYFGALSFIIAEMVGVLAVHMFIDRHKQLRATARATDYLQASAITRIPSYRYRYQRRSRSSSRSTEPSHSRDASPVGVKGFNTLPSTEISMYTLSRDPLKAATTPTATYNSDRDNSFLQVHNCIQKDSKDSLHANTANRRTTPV
Chain of GluA2i-ΔNTD (flip, R607) (P19491 other isoform, or with tags, fused parts or gaps, stated change not applied): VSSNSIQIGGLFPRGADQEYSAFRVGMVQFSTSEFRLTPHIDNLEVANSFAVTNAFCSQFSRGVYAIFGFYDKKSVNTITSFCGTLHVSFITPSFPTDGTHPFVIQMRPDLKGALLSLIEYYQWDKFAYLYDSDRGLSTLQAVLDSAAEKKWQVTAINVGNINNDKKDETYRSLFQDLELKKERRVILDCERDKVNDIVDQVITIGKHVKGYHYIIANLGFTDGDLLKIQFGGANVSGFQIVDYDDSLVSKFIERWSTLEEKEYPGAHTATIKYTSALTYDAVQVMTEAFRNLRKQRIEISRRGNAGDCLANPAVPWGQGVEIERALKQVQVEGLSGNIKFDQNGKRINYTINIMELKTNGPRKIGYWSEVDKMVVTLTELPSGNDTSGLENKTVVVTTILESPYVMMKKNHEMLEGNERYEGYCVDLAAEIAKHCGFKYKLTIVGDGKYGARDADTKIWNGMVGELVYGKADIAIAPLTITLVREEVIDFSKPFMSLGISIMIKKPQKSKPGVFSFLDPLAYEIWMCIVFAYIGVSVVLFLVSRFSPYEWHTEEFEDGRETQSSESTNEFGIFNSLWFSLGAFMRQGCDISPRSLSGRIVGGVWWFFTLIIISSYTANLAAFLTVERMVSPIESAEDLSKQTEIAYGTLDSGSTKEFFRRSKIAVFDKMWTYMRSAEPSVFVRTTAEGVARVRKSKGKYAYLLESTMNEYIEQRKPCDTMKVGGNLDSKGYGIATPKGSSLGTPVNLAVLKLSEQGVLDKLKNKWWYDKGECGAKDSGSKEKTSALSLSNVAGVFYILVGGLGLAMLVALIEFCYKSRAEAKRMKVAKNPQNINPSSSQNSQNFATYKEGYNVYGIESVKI
Chain of GluA2o-R607 ΔNTD (flop Δ-NTD mutant) (P19491 other isoform, or with tags, fused parts or gaps, stated change not applied): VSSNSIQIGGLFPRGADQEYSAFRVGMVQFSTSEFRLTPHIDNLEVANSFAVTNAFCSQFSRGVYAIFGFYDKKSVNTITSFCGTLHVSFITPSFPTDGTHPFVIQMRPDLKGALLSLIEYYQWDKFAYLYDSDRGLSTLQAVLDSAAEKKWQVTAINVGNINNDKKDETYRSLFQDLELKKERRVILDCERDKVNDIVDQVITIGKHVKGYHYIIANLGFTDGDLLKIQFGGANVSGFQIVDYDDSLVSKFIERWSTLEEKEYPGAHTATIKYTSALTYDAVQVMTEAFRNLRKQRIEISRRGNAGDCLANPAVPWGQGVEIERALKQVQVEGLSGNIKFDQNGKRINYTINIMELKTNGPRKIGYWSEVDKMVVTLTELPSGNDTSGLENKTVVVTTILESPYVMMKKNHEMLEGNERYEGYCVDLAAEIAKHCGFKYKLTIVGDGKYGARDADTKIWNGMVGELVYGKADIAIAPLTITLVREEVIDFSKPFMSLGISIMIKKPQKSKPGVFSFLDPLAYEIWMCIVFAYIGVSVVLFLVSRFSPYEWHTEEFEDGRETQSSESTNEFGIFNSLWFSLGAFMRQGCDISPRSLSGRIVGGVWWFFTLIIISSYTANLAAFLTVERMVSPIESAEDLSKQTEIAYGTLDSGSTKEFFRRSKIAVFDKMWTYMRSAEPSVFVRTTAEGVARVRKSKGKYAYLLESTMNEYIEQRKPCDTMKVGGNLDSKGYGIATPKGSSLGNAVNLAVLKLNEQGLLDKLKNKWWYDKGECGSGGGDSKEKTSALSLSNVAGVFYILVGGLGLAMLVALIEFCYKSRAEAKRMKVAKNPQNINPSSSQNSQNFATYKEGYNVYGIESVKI

In the case of “GluA2i-ΔNTD (flip, R607) (from UniProt P19491-2 22-883) (receptor)”, the fold reduction of coIP by the Q to R switch (ΔNTD R607 against ΔNTD Q607) is 2.2 fold and the ratio of IPed GluA2i WT to GluA2i-ΔNTD, normalized to the input was found to be 2.9 fold.

The substance “GluA2o-R607 ΔNTD (flop Δ-NTD mutant) (from UniProt P19491 22-883) (receptor)” came in with a fold less efficiently precipitated than the flip ΔNTD counterpart of 2.9 fold.
